Data set [1] concerns T1, Spo0A (Paenibacillus polymyxa SC2), ORF:894240d5.
T1 sequence: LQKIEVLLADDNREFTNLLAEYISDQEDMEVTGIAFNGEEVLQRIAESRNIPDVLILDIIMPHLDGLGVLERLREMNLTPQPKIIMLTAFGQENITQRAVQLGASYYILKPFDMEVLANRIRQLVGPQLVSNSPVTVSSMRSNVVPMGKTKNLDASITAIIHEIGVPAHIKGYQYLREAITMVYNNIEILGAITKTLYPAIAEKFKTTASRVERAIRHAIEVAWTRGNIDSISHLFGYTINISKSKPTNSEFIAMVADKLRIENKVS
The data set is described as follows: EMSA. The following applies: EMSA: Beyotime chemiluminescent EMSA kit buffer (composition and pH not stated), 10 uL, 20 min at room temperature, native PAGE in 0.5x TBE, 70 V for 70 min …. (A gel shift assay detects complexes by their altered migration in electrophoresis.)

The test system of data set [2] is T2, AbrB3 (Paenibacillus polymyxa SC2), ORF:7049d318.
T2 sequence: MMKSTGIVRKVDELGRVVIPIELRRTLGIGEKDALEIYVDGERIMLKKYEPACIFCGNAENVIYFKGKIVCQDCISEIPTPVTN
The data set is described as follows: EMSA. Conditions: EMSA: Beyotime chemiluminescent EMSA kit buffer (composition and pH not stated), 10 uL, 20 min at room temperature, native PAGE in 0.5x TBE, 70 V for 70 min ….

With “TGTACTTCCTCCTTATTGAGTGTTATTCCATTGGGACATCTGTTTGCATTAAATAAATATTTCTTGTCGGAGTATATGATTTCGACATCGAATTATGAATTCCTTCTGTCGAAAATTATTTTTATTTATTTTTTTTATTAATTCAATTATAATTGAATTTTTATCTTGCAATTCTGAGTTATTCCCCTGCTTTTCGACAAAAAAATCTTAAGGCCA (double strand) [Pspo0A]”, in data set [1], the binding entry is “binds”.

Take “ATGTAATTCACAGCCCCTTAACGTATATTACTAAAAATTTCTTTGCCAACTAGAATATTGATTCTGAATATATATCGGCAATCCCCTATAATTCCTCAACACGTTTTCCACCATTAAACAAACATATTATGGGAATTACTTGTATACTTTTCAACAGTTTACTTAATATATGCGATTGCTTCTCTAAGCCTATTCTTTTTTATCATAATTATTTAGTATTATAAGGATATAAAAAAGGAGGTTATCAT (double strand) [Pabh]”: the binding result in data set [2] and in data set [1] was “binds” throughout.

Values taken from PMC10782996.
